B1: 单抗PGI_1G9 (VHH)
VHH: QVQLVQSGGGSAHLGGSLRLSCAASGFIFSDYYMAWVRQAPGKEREWVSEINTSGRTYYADSVKGRFTISRDNAKNTLYLQMDSLKPEDTAVYYCYVHRSSIFTNREYWGQGTQVTVSS
B2: 单抗PGI_1H10 (VHH)
VHH: QVQLVQSGGGLVQAGGSLRLSCVVSGFNFSSFDRYTMSWVRQIPGKGLEWVSAINGGGIKTAYADSVKGRFTISRDNAKNTVYLQMNDLKPADTAVYYCTFTRWLVRGDYWGQGTQVTVSS
B3: 单抗PGI_2F1 (VHH)
VHH: QVQLVESGGGLVQTGDSLKLSCLASGRTFSSRAMGWFRQAPGKEREFVAAISTSGVLKYYAPSVKGRFTISRDNAKNTMYLEMNSPEPEDTAVYYCAANGPPFGAYWWPTAREYDAWGQGTQVTVSS

Target: T1, 胃蛋白酶原I (Pepsinogen I) (Homo sapiens (Human), UniProt P0DJD7 63-388, limits assumed)
T1 construct: also called PGI; PG I
T1 sequence (P0DJD7 63-388 limits assumed): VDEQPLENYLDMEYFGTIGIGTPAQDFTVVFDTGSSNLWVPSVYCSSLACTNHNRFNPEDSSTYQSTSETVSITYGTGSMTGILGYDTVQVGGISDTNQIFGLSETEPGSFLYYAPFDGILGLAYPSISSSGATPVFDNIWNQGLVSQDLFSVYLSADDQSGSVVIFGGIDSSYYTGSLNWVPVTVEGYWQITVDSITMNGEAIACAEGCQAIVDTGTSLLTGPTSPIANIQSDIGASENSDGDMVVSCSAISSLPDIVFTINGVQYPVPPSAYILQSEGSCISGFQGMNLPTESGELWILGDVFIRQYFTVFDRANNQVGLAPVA
Test: ELISA, VHH-pIII in bacterial culture supernatant incubated with PGI antigen; kd derived from binding strength

Row | Binder | Kd [nM]
1 | B1 | 1030
2 | B2 | 123
3 | B3 | 404

From patent publication CN114591436A (BIOLOGICAL ISLAND LABORATORY; UNIV SCIENCE AND TECHNOLOGY …, dated 2022)
